Experimental data reported in publication PMC8646926 (Advanced Biology, 2021).
Where two headings read alike, the source gives them in different places.

Key:
[1] = target: T1, SARS-CoV-2 Nsp9, wild type, purified recombinant (SARS-CoV-2, UniProt P0DTD1)
[2] = target: T1, SARS-CoV-2 Nsp9, wild type, purified …; test: far-Western, overlay or dot blot; conditions: both partners purified
[3] = target: T1, SARS-CoV-2 Nsp9, wild type, purified …; test: NMR titration; conditions: both partners purified

B1: 3NSP52 (VHH)
VHH: QVQLQESGGGLVQPEGSLRLSCAASGLTFDSYAIGWFRQAPGKEREFVAASIWSGDSGHYTGSVKGRFTISRDNAKNTVDLQMNSLKPEDTAVYYCAASASFLHSANYHMRAKWGYWGQGTQVTVSS
binding result [1]: binds

B2: 2INS27 (VHH)
VHH: QVQLQESGGGLVQAGGSLRLSCATSGSIFSSAVMGWYRQAPGNERELVALIGSSDTTDYSNSVKGRFTISRDNAKNTAYLRMNSLKPEDTAVYYCTAVKYGLGGFVYWGQGTQVTVSS
binding result [1]: binds

B3: 3NSP78 (VHH)
VHH: QVQLQESGGGLVQAGGSLRLSCAASGRAFSSYVMGWFRQAPGKEREFVAAIHWTGAATVYVDSVKGRFAISRHNAKNTVYLEMNSLKPEDTAVYYCAADPSGSYWPPKRYDYWGQGTQVTVSS
binding result [1]: binds

B4: nanobody 2NSP23 (VHH)
VHH: QVQLQESGGGLVQPGGSLRLSCAASGLAFSMYTMGWFRQAPGKEREFVAMIISSGDSTDYADSVKGRFTISRDNGKNTVYLQMDSLKPEDTAVYYCAAPKFRYYFSTSPGDFDSWGQGTQVTVSS
binding result [2]: binds

B5: nanobody 2NSP90 (VHH)
VHH: QVQLQESGGGLVQTGDSLRLSCAVSGRTFSTYSVGWFRQAPGKEREFVALRWSGGTTYYADSVVGRFTVSRDNAKNTVYLEMNSLKPEDTAVYYCAADRGSGSYSPTYRWDYWGQGTQVTVSS
stoichiometry N [3]: 3 to 4

B6: 2INS64 (VHH)
VHH: QVQLQESGGGLVQVGGSLRLSCAASGSILSINAMGWYRQAPGKQRELVAAITSGGSTNYADSVKGRFTISRDNAKNMLYLQMNSLKPEDTAVYYCHVVTGWGPLDWGQGTQVTVSS
binding result [1]: binds

B7: 2INS45 (VHH)
VHH: QVQLQESGGGLVQAGGSLRLSCAASGFTLSSNDMGWYRQAPGKQRELVATITSGLSTNYADSVKGRFTISRDNAKNTVFLQMNSLKIEDTAVYYCEVERGWGPPRDYWGHGTQVTVSS
binding result [1]: binds

B8: 2INS69 (VHH)
VHH: QVQLQESGGGLVRAGDSLRLSCAVSGRTFSSVAMGWFRQAPGKEREFVAFISGSTGSVTYYADSVKGRFAISRDNAKNTVYLQMNSLKPEDTAVYDCAAKFTGTFNYQGLYDYWGQGTQVTVSS
binding result [1]: binds
